Broadly, the EC50 is the concentration at which the effect is half-maximal. Read a low EC50 as greater potency.

In experiment [1] the target is T1, VEGF 1-165 aa (UniProt P15692 27-191).
T1 construct: Bought antigen coated on the ELISA plate
The experiment in a line: direct bind ELISA (C-term VD).

Experiment [2] has as its target T2, HGF-His tag (UniProt P14210 32-728).
T2 construct: Bought antigen coated on the ELISA plate; not shown: His tag
Description: direct bind ELISA (N-term VD).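 Also: ELISA screen of antibodies for binding to plate-immobilized target antigen.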 A general note: An ELISA detects its analyte on a solid surface through an enzyme-linked reagent.

T1 sequence (P15692 other isoform, or with tags, fused parts or gaps limits assumed): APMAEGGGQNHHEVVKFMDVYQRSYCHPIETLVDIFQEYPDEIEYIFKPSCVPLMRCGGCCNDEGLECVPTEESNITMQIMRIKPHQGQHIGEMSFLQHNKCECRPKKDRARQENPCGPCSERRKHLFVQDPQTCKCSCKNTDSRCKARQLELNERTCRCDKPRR
T2 sequence (P14210 32-728 limits assumed): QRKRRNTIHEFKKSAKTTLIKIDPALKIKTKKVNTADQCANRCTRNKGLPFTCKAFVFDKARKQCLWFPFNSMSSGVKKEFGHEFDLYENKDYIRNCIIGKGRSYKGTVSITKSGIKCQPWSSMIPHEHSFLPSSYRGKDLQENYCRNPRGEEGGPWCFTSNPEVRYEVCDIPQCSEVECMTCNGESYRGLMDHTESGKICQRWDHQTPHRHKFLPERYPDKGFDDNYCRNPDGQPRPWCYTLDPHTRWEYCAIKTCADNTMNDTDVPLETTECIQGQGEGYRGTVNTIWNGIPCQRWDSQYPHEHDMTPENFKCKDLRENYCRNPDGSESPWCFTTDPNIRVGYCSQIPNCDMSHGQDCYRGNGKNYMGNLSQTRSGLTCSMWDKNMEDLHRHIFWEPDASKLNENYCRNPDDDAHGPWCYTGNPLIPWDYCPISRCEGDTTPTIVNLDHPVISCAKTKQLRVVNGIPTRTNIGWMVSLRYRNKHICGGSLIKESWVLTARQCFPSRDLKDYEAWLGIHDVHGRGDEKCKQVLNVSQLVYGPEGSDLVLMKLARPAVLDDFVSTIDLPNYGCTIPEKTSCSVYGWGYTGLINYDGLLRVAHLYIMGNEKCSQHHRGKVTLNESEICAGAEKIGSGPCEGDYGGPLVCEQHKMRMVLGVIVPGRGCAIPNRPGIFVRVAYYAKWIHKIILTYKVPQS

B1: DVD649 (bispecific antibody, human IgG1, kappa)
heavy: not shown
light: DIQMTQSPSSVSASVGDRVTITCRASQGISSWLAWYQQKPGKAPNLLIYEASSLQSGVPSRFGGSGSGTDFTLTISSLQPEDFATYYCQQANGFPWTFGQGTKVEIKRTVAAPDIQMTQSPSSLSASVGDRVTITCRASQDVSTAVAWYQQKPGKAPKLLIYSASFLYSGVPSRFSGSGSGTDFTLTISSLQPEDFATYYCQQSYTTPPTFGQGTKVEIKRTVAAPSVFIFPPSDEQLKSGTASVVCLLNNFYPREAKVQWKVDNALQSGNSQESVTEQDSKDSTYSLSSTLTLSKADYEKHKVYACEVTHQGLSSPVTKSFNRGEC
notes: DVD-Ig; HC linker long, LC linker short; vectors V1/V2
For B1, the EC50 in experiment [1] is 186 nM; in experiment [2], 0.15 nM.

B2: DVD643 (bispecific antibody, human IgG1, kappa)
heavy: not shown
light: DIQMTQSPSSVSASVGDRVTITCRASQGISSWLAWYQQKPGKAPNLLIYEASSLQSGVPSRFGGSGSGTDFTLTISSLQPEDFATYYCQQANGFPWTFGQGTKVEIKRTVAAPSVFIFPPDIQMTQSPSSLSASVGDRVTITCRASQDVSTAVAWYQQKPGKAPKLLIYSASFLYSGVPSRFSGSGSGTDFTLTISSLQPEDFATYYCQQSYTTPPTFGQGTKVEIKRTVAAPSVFIFPPSDEQLKSGTASVVCLLNNFYPREAKVQWKVDNALQSGNSQESVTEQDSKDSTYSLSSTLTLSKADYEKHKVYACEVTHQGLSSPVTKSFNRGEC
notes: DVD-Ig; HC linker long, LC linker long; vectors V1/V2
B2: the EC50 stood at 175 nM in experiment [1] and 0.26 nM in experiment [2].

B3: DVD655 (bispecific antibody, human IgG1, kappa)
heavy: not shown
light: DIQMTQSPSSVSASVGDRVTITCRASQGISSWLAWYQQKPGKAPNLLIYEASSLQSGVPSRFGGSGSGTDFTLTISSLQPEDFATYYCQQANGFPWTFGQGTKVEIKRTVAAPSVFIFPPDIQMTQSPSSLSASVGDRVTITCRASQDVSTAVAWYQQKPGKAPKLLIYSASFLYSGVPSRFSGSGSGTDFTLTISSLQPEDFATYYCQQSYTTPPTFGQGTKVEIKRTVAAPSVFIFPPSDEQLKSGTASVVCLLNNFYPREAKVQWKVDNALQSGNSQESVTEQDSKDSTYSLSSTLTLSKADYEKHKVYACEVTHQGLSSPVTKSFNRGEC
notes: DVD-Ig; HC linker short, LC linker long; vectors V1/V2
As for B3, the EC50 came out at 92.9 nM in experiment [1] and 0.19 nM in experiment [2].

B4: DVD663 (bispecific antibody, human IgG1, kappa)
heavy: not shown
light: DIQMTQSPSSLSASVGDRVTITCKASENVVSYVSWYQQKPGKAPKLLIYGASNRNTGVPSRFSGSGSGTDFTLTISSLQPEDFATYYCGQSYNYPYTFGQGTKLEIKRTVAAPDIQMTQSPSSLSASVGDRVTITCRASQVIRRSLAWYQQKPGKAPKLLIYAASNLASGVPSRFSGSGSGTDFTLTISSLQPEDFATYYCQQSNTSPLTFGQGTKVEIKRTVAAPSVFIFPPSDEQLKSGTASVVCLLNNFYPREAKVQWKVDNALQSGNSQESVTEQDSKDSTYSLSSTLTLSKADYEKHKVYACEVTHQGLSSPVTKSFNRGEC
notes: DVD-Ig; N-term VD AB079 (HGF), C-term VD AB071 (VEGF); HC linker short, LC linker short; vectors V1/V2
As to B4, in experiment [2], it took 0.26 nM to reach a half-maximal effect (EC50).

B5: DVD651 (bispecific antibody, human IgG1, kappa)
heavy: not shown
light: DIQMTQSPSSVSASVGDRVTITCRASQGISSWLAWYQQKPGKAPNLLIYEASSLQSGVPSRFGGSGSGTDFTLTISSLQPEDFATYYCQQANGFPWTFGQGTKVEIKRTVAAPDIQMTQSPSSLSASVGDRVTITCRASQVIRRSLAWYQQKPGKAPKLLIYAASNLASGVPSRFSGSGSGTDFTLTISSLQPEDFATYYCQQSNTSPLTFGQGTKVEIKRTVAAPSVFIFPPSDEQLKSGTASVVCLLNNFYPREAKVQWKVDNALQSGNSQESVTEQDSKDSTYSLSSTLTLSKADYEKHKVYACEVTHQGLSSPVTKSFNRGEC
notes: DVD-Ig; N-term VD AB012 (HGF), C-term VD AB071 (VEGF); HC linker long, LC linker short; vectors V1/V2
As to B5, the EC50 in experiment [1] turned out to be 341 nM; in experiment [2], 0.11 nM.

B6: DVD645 (bispecific antibody, human IgG1, kappa)
heavy: not shown
light: DIQMTQSPSSVSASVGDRVTITCRASQGISSWLAWYQQKPGKAPNLLIYEASSLQSGVPSRFGGSGSGTDFTLTISSLQPEDFATYYCQQANGFPWTFGQGTKVEIKRTVAAPSVFIFPPDIQMTQSPSSLSASVGDRVTITCRASQVIRRSLAWYQQKPGKAPKLLIYAASNLASGVPSRFSGSGSGTDFTLTISSLQPEDFATYYCQQSNTSPLTFGQGTKVEIKRTVAAPSVFIFPPSDEQLKSGTASVVCLLNNFYPREAKVQWKVDNALQSGNSQESVTEQDSKDSTYSLSSTLTLSKADYEKHKVYACEVTHQGLSSPVTKSFNRGEC
notes: DVD-Ig; N-term VD AB012 (HGF), C-term VD AB071 (VEGF); HC linker long, LC linker long; vectors V1/V2
Consider B6, for which the EC50 in experiment [2] was found to be 0.17 nM.

The values are drawn from patent US20100260668A1 (published 2010).
